{"source": "paper PMC9945959", "target": "Full-length human NF1 isoform 2 (short isoform), recombinant (human) (UniProt P21359)", "assay": "cryo-EM structure", "data": [{"substance": "Full-length human NF1 isoform 2 (short isoform), recombinant, P21359-2 1-2818", "values": [{"measurement": "stoichiometry N", "value": 2}]}]}
